For this series, the system named is T1, Oc1ccc2ccc3c4ccccc4cc4ccc1c2c43.
T1 construct: made in house; host or cells: Escherichia coli
The series can be described thus: Kinetics of 3-OH-BaP sulfonation by partially purified cDNA-expressed SULT1B1. Type of series: biochemical, human. To be noted: other: apparent, 3-OH-BaP as substrate. From the text: The expression of human SULT1A1*1, SULT1A3, SULT1B1, and SULT1E1 in Escherichia coli has been described previously ([Dajani et al. 1998]; [Wang et al. 1998]). We grew E. coli cells containing the respective sulfotransferase genes as described previously ([Falany et al. 1990], [1994]), and prepared 100,000g supernatant fractions for use in inhibition studies and for partial purification of the SULT enzymes. We purchased expressed SULT1A1*2 cytosolic extract from PanVera (Madison, WI) and used it as supplied.
The 100,000g supernatant fractions of SULT1A1*1, SULT1A3, SULT1B1, and SULT1E1 were partially purified by chromatographic methods ([Falany et al. 1990], [1994]). After the last step, a 3′-phosphoadenosine 5′-phosphate (PAP)-agarose affinity column, we dialyzed the fractions eluted with PAP with three changes of buffer to remove PAP before the assay of SULT activity with 3-OH-BaP as substrate. We analyzed active fractions by SDS-PAGE ([Laemmli 1970]) to assess the purity of each SULT enzyme. We stained the gels with Coomassie R-250 reagent and determined the percentage of protein present as each respective SULT enzyme by scanning densitometry.
We determined SULT activity with 3-OH-BaP as substrate by a fluorimetric assay of BaP-3-SO4 product formation, as described previously ([Wang et al. 2004]). […] Duplicate tubes were prepared for each incubation condition. We examined the kinetics of sulfonation in three liver cytosol fractions by systematically varying the concentration of 3-OH-BaP or PAPS. When the variable substrate was 3-OH-BaP, we used 12 concentrations in the range from 0.035 to 2.00 μM, and the concentration of PAPS was kept constant at 10 μM. […]
We determined the kinetic parameters for 3-OH-BaP sulfonation by partially purified preparations of the cDNA-expressed SULT isozymes under incubation conditions similar to those used for liver cytosol. […]
We calculated the enzyme kinetic parameters from studies with variable concentrations of 3-OH-BaP using nonlinear regression analysis and GraphPad 4.0 software (GraphPad Software, San Diego, CA). […]

Turning to SULT1B1 (Homo sapiens), the Michaelis constant (Km) (usually the concentration of substrate that gives half-maximal velocity) was determined as 2.00 µM, the Vmax (commonly the top rate of the reaction or transport when substrate is in excess) stood at 0.0097 µmol/min/mg and the Vmax/Km is 4900 µL/min/mg.

Values taken from paper PMC1257591, “In Vitro Inhibition of Human Hepatic and cDNA-Expressed Sulfotransferase Activity with 3-Hydroxybenzo[a]pyrene by Polychlorobiphenylols” (Environmental Health Perspectives, 2005).
